Experiment: yeast display, Sf9 membrane polyspecificity reagent, FACS + sequencing; frameworks hold sequencing errors
Method in brief: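 Using colony PCR, genes from sorted yeast display clones were amplified, then sequenced on MiSeq at 2 × 250 and filtered by CDR length. The clones had been stained with 10% biotinylated, detergent-solubilized Sf9 membrane reagent for 1 hour at 4 °C and sorted by FACS into low and high (top ~1%) gates on anti-HA and streptavidin fluorescence. Polyreactivity labels come from the gate of origin.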

Sequence	polyreactivity (PSR sort gate)
QVQLVESGGGLVQAGGSLRLSCAASGRTFYPYAMGWYRQAPGKERELVARISASGGSTYYADSVKGRFTISRDNAKNTVYLQMNSLKTEDTAVYYCARESFWRTLMDYWGQGTQVTVSS	high polyreactivity
QVQLVQSGGGLVQAGGSLRLSSAASGSTFWANAMGWYRQAPGKERELVAAISVRGGNTYYADSVKGRFTISRDNAKNTVYLQMNSLKPEDTAVYYCAARPISWTSYYDYWGQGTQVSVSS	high polyreactivity
QVQLVESGGGLVQAGGSLRLSCAASGITFSVYAMGWYRQAPGKERELVAAINYDSGSTYYADSVKGRFTISRDNAKNTVYLQMNSLKPEDTAVYYCATDGVNPFYAFDYWGQGTQVTVSS	low polyreactivity
HVQLVESGGGLVQAGGRLRLSCAASGRTFWYYTMGWYRQAPGKDRELVAAITSVGSTYYADSVKGRFTISRDNAKNTVYLQMNSLKPEDTAVYYCAKLYSYTHQSFDHWGQGTQVTVSS	high polyreactivity
QVQLVESGGGLVQAGGSLRLSCAASGSIFRFYAMGWYRQAPGTERELVAAISSSGSSTYYADSVKGRFTISRDNAMNTVYLQMNSLKPEDTAVYYCNARLGWSRAWSMDSWGQGTQVTVSS	high polyreactivity
QVQLVESGGGLVQAGGSLRLSCAASGRTSVLYAMGWYRQAPGKERELVAAISRDGSTNYADSVKGRFTISRDNAKNTVYLQMNSLKPEDTAVYYCAAEVRGSYYLTGYDYWGQGTQVTVSS	high polyreactivity
QVQLVESGGGLVHSGGSLRLSCAASGSIFRRNAMGWYIQAPGKERELVAAISASGGRTYADSVKGRFTISRDNAKNTVYLQMNSLKPEDTAVYYCAVRSYWRVDYWGQGTQVTVSS	high polyreactivity
QVQLVESGGGLVQAGGSLRLSCAASGSIFYSNTMGWYRQAPGKERELVAAISRGGSTYYADSVKGRFTISRENAKNTVYLQMNSLKPEDTAVYYCAARYRWAPAYDYWGQGTQVTVSS	high polyreactivity
QVQLVESGGGLVQAGGSLRLSCAASGSTFSVYTMGWYRQAPGKERELVAAITRNGGSTSYADSVKGRFTISRDNAKNTVYLQMNSLKPEDTAVYYCAASYSYRGYLYGYWGQGTQVTVSS	high polyreactivity
QVQLVESGGGLVHAGGSLRLSCASSGSIFYYYAMGWYRQAPGKERELVASITSSGGTTSYADSVKGRYTISRDNAKNTVYLLMNSLKPEDTAVYYCNAQVYRYRIGYDYWGQCTQVTVSS	low polyreactivity
QVQLVESGAGLVQAGGSLRLSCAASGRTFSGYAMGWYRQAPGKERELVASITWSGGSTYYADSVKGRFTISRDNAKNTVYLQMNSLKPDDTAVYYCARDSPRGRVGFNYWGQGTQVTVSS	low polyreactivity
QVQLVESGGGLVQAGGILRLSCAASGSTFAVYAMGWYRQAPGKERELVAAISRSGGRTYYADSVKGRFTISRDNAKNTVYLQMNCLKPDDTAVYYCAAPSTCSYGSDYWGPGTQVTVSS	high polyreactivity
QDQLVESGGGLVQAGGSLRLSCAASGFTFFPYAMGWYRQAPGKERELVAGINDGGSTNYADSVKGRFTISRDNAKNTVYLQLNSLKPEDTAVYYCNADTPLSGGSSMGYWGQGTQVTVSS	low polyreactivity
QVQLVESGGGLVQAGGSLRLSCAASGFTFSGYAMGWYRQAPGKERELVASITGSGSSTYYADSVKGRFTISRDNAKNNVYLQMNSLKPEDTAVYYCNAQFIGGWWAIYDYWGQGTQVTVSS	high polyreactivity
QVQLVESGGGLVQAGGSLRLSCAASGITFKSNAMGWYRQAPGKERELVAAISRRASSTYYADSVKGRFTISRDNAKNTVYLQMNSLKPEDTAVYYCAARSTVLATVSYPFGRYYWGQGTQVTVSS	high polyreactivity
QVQLVESGGGLVQAGGSLRLSCAASGGTFVYALGWYRQAPGKERELVAAISARTTGTYYADSVKGRFTISRDNAKNTVYLQMNSLKPEDTAVYYCAAKSKLSRDLYSWGQGTQVTVSS	low polyreactivity

Sequence	polyreactivity (PSR sort gate)
QVQLVESGGGLVQAGGSLRLSCAASGLTFSAYAMGWYRQAPGKERELVAAITSSGGSTYADSVKGRFTLSRDNAKNTVYLQMNSRKPEDTAVYYCNADLGDYGWYSSYDYWGQGNQVTVSS	low polyreactivity
QVQLVESGGGLVQAGGSLRLSCAASGRIFHYYAMGWYIKAPGKERELVAAITSSGGSTYYADSVKGRFTISRDNAKNTVYLKMNSLKPEDTAVYYCAARGRRVSAYYYWGQGTQVTVSS	high polyreactivity
QVQLVESGVGLVQAGGSLRLSCAASGIIFRSYAMGWYRQAPGKERELVAAITSSGGRTYYADSVKGRFTISRDNAKNTVYLQMNSLKPEDTAVYYCAAKTYQQQIVRPMYYWGQGTQVTVSS	high polyreactivity
QVQLVESGGGLVQAGGSLRLSCAASGFTIKYYAMGWYRQAPGKEREFVAAISSSGGRTYYADSVKVRFTISRDYAKNTVYLQMNSLKPEDTAVYYCAAAWGTYGYHYDYLGQGTQVTVSS	low polyreactivity
QVQLVESGGGLVQAGGSLRLSCAASGRTFGDYAMGWYRQAPGKERELVAAITIGGSTYYADSVKGRFTISRDNAKNTVYLQMNSLKPEDTAVYYCAATTYSIPSRYDSWGQGTQVTVSS	low polyreactivity
QVQLVESGGGLVQAGGSLRLICAASGIIFSEYAMGWYRQAPGKERELVAVITSGGSTYYADSVKGRFTISRDNAKNTVYLQMNSLKPEDTAVYYCAARGYRYPMYWGQGTQVTVSS	high polyreactivity
QVQLVESGGGLVQAGGSLRLSCAASGFICVHKAMGWYREAPGNERELVAAITWSGGRTYYADSVKGRCTISRDKAKNTVYLQKNSLKPEDTAVYYCATTVNSHVPGVSKYYYWGHGTQVTVSS	high polyreactivity
QVQLVESGGGLVQAGGSLRLSCAASGFIFAYYAMGWYRQAPGKERELVAAISYNGGTTYYADSVKGRFTISRDNAKNTVYLQMNSLKPEDSAVYYCNALVHQTYYDYDYWGQGTQVTVSS	high polyreactivity
QVQLVESGGGLVQAGGSLRLSCAASGFTLQQYTMGWYIQAPGKERELVAAISTSGVRTYYADSVKGRFTISRDNAKNTVYLQMNSLKPEDTAVYYCNAAWVYGIGWYSGYDYWGQGTQVTVSS	high polyreactivity
QVQLVESGGGLVKAGGSLRLSCAAYGITFIRYAMGWYRQAPGKERELVAVMTRSGGRTYYADSVKGRFTISRDNAKNTVYLQMNSLKPEDTAVYYCAARAYGYDEYEYWGQGTQVTVSS	high polyreactivity
QVQLVESGGGLVQAGGSLRLRCAASGRTFAVYAMGWYRQAPGKERELVAAITLGASRTYYADSVKGRFTISRDNAKNTVYLQMNSLKPEDTAVYYCAVTWGARTDQWSLRVFVGYDYWGQGTQVTVSS	low polyreactivity
QVQLVESGGGLVQAGGSLRLSCAASGSTFHTYAMGWYRQAPGKERELVAGITGSGDSTFYADSVKGRFTISRDNAKNTVYLQMNSLKPEDTAVYYCAVESLRDVFEYDYWGQGTQVTVSS	low polyreactivity
QVQLVESGGGLVQAGGSLRLSCAASGSIFGTNAMGWYRQAPGKEREMVAAISLSTGSTYYADSVKGRFTISRDKAKNTVYLQMNSLKPEDTAVYSCAAYYVTPIYYYLGQGTQVTVSS	low polyreactivity
QVQLVESGGGLVQAGGSLRLSCAASGNIFYQYAMGWYRQAPGKEREFVAAISISGTSTYADSVKGRFTISRDNAKNTVYLQMNSLKPEDTAVYWGQGTQVTVSS	low polyreactivity
QVQLVESGGGLVQAGGSLRLSCAASGLIFTTNAMGWYRQAPGKERELVAAISTSTGRTYYADSVKGRFTISRDTAKNTVYFQMNSLKPEDTAVYYCAADGFLSYYGFWRYEYWGQGTQVTVSS	high polyreactivity
QVQLVESGGGLVQAGGSLRLSSAASGRIFAVYAMGWYRQAPGKEREFVAAISYSGGITYYADSVKGRFTISRDNAKNTVYLQMNSLKPEDTAVYYCNAYYYFWGQGTQVTVSS	low polyreactivity

— the nanobody polyreactivity screen of Harvey et al. (2022)
